T1: GroEL1 (untagged) (Mycobacterium tuberculosis, UniProt P9WPE9 1-539)
T1 sequence: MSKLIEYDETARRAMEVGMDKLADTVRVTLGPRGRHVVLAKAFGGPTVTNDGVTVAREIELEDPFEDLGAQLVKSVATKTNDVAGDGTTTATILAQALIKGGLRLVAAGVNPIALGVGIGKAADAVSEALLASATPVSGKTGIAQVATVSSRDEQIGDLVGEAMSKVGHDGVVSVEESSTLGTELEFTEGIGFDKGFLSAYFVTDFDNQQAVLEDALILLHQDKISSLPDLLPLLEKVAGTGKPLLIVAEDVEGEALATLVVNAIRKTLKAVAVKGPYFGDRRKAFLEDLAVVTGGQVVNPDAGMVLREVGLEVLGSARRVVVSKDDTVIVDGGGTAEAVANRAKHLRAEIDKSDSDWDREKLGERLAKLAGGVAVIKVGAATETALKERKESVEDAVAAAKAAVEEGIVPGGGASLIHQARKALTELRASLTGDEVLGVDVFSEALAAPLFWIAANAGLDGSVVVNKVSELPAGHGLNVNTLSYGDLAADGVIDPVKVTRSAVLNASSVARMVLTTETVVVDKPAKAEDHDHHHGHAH

T2: GroEL1 (untagged) (Mycobacterium tuberculosis) (UniProt P9WPE9)
T2 sequence: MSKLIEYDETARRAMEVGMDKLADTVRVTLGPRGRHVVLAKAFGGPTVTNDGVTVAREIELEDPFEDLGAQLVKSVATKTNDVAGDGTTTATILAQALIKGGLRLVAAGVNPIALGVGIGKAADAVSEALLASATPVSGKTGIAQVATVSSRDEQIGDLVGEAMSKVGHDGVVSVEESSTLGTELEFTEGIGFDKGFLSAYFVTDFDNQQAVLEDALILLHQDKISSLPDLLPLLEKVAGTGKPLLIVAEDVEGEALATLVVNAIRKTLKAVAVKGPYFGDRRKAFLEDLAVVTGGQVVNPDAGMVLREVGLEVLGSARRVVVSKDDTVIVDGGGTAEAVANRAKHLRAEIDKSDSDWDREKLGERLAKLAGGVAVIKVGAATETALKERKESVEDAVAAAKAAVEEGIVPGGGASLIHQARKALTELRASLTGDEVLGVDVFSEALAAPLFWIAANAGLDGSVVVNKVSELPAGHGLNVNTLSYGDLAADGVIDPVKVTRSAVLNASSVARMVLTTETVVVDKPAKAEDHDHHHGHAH

B1: CIRCE2F ss (ssDNA)
DNA: TTAGCCGATTGCCATCTAGCACTCTATACATGAGAGTGCTAGCACTCAAGGGCGCCCCCT
B2: MutO5 ss (ssDNA)
DNA: TTAGCCGATTGCCATCTAGCACTCTGCGCCCCCTATACATGAGAGTGCTAGCACTCAAGG
B3: MutO3 ss (ssDNA)
DNA: TTAGCCGATTGCCATTCCTGTACAAATACATGAGAGTGCTAGCACTCAAGGGCGCCCCCT
B4: MutO7 ss (ssDNA)
DNA: TTAGCCGATTGCCATCACGCACTACGTAGTGTCTATGTATCGATCTCAAGGGCGCCCCCT
B5: MutO6 ss (ssDNA)
DNA: TTAGCCGATTGCCATCTAGCACTCTATACATGTTGGAACGGACACTCAAGGGCGCCCCCT
B6: MutO4 ss (ssDNA)
DNA: GTGCACTTAGCCGATTGCCATTCTATACATGAGACACTCAAGGGCGCCCCCTCTAGCTAG
B7: MutO2 ss (ssDNA)
DNA: ATACTTAGCCGATTGCCATCTAGCACTCTAGAGTGCTAGCACTCAAGGGCGCCCCCTATG
B8: CIRCE2FR (dsDNA)
DNA 1: TTAGCCGATTGCCATCTAGCACTCTATACATGAGAGTGCTAGCACTCAAGGGCGCCCCCT
DNA 2: AGGGGGCGCCCTTGAGTGCTAGCACTCTCATGTATAGAGTGCTAGATGGCAATCGGCTAA

In one series the target is T1, GroEL1 (untagged). As to the kind of experiment: EMSA.
Turning to B1, the binding result was “binds”.
As for B2, the binding result was “binds”.
For the molecule B3, the binding result is given as “binds”.
Same read-out and setting: the result for B4 reads “binds”; that for B5, “binds”; that for B6, “binds”.
Same read-out and setting: next, B7: “binds”.

For the next series, the target named is T1, GroEL1 (untagged). As to the kind of experiment: EMSA. This is another data set of the same source.
In turn, B8 came in with a Kd of 143 nM.

A further series has as its target T2, GroEL1 (untagged) (Mycobacterium tuberculosis). Nature of the series: EMSA.
For the molecule “TATATAGTCGACCCAGGTGATTCGGCATTCGTCCGCGCCCTCGCGCCGTCGTCGCGGGTGCCGACGCAGGGGTTAGCCGATTGCCATCTAGCACTCTATACATGAGAGTGCTAGCACTCAAGGGCGCCCCCTTGCTTCCTGGTTGCCAGCGTGTCTCTAGATATATA (double strand) [groES upstream region, 140 bp]”, the binding entry is on record as “binds”.

For the origin of these results see publication PMC2731897.
